Assay results published in US6362395.

Molecular target: calmodulin (unlabeled, as used in the gel mobility-shift and kinase assays of Example 2) (UniProt P04353)

lily CCaMK truncation mutant 1-356
Ca2+/calmodulin-dependent kinase activity (histone IIAS phosphorylation): retained Ca2+/calmodulin-dependent kinase activity at a substantially reduced level
